From US20220227866A1 (VELOSBIO, published 2022) come the findings set out here.

Several values for one entry are separate records, joined by “and”; a condition that tells them apart may be missing. Equal entries are not always repeated.

Assay [1] addresses human ROR1 on cells (human, UniProt Q01973 30-937). As to the kind of experiment: cell-based or functional assay.
Assay [2] deals with T1, soluble biotinylated human ROR1 extracellular domain (human, UniProt Q01973 30-406, biotinylated with EZ-Link Sulfo-NHS-LC-Biotin at a 1:5 molar ratio).
T1 construct: Acro Biosystems cat; whole entry named; also called b-ROR1; soluble b-ROR1
Briefly: ELISA, captured construct, biotinylated ROR1 titrated. The protocol:
To measure the binding of bispecific constructs to soluble ROR1, a 96-well Costar-3366 plate was coated with 50 μL/well of 2 μg/mL goat anti-human kappa (Southern Biotech cat. #2060-01) in PBS overnight at 4° C. The plate was rinsed once with PBS-T, blocked with 100 μL/well 5% M-P for 1 h at 25° C., rinsed once with PBS-T, and 2 μg/mL of the bispecific binding molecule was added and incubated for 1 h at 25° C. The plate was washed three times with PBS-T. Biotinylated ROR1 was diluted serially, 3-fold in 5% M-P and was incubated for 1 h at 25° C. (50 μL/well). The plate was washed three times with PBS-T. To detect the binding of b-ROR1, 50 μL/well Neutravidin-HRP (Pierce cat. #31030) diluted 1:5000 in 1% BSA-PBS was added for 1 h at 25° C. The plate was washed three times with PBS-T, then developed with 50 μL/well 1-Step Ultra TMB-ELISA (Thermo Scientific cat. #34028). The reaction was terminated by the addition of 2 N H₂SO₄ and the A450 was determined using a Spectramax plate reader.
The stronger binding observed with bivalent constructs versus monovalent constructs in cell assays and ELISAs in which the antigen is immobilized is consistent with an avidity effect. To determine if this was the case, binding to soluble monomeric ROR1 was assessed by immobilizing the bispecific binding molecules on a microtiter plate coated with goat anti-human kappa antibody and titrating biotinylated RORL. All bispecific binding molecules were active in this format (FIG. 7), and in most cases, there were no notable differences between monovalent and bivalent constructs.

Assay [3] addresses T2, human CD3 on Jurkat cells (human, UniProt P09693 23-182; P04234 22-171; P07766 23-207).
T2 construct: GenBank NP_000064.1, NP_000723.1, NP_000724.1
As to the kind of experiment: flow cytometry on Jurkat cells. How it is done: To quantitate CD3 binding, 2.5E5 Jurkat cells were used for each condition. A 2× stock of the cells was made by resuspending the cells to 5E6/mL by placing in 50 μL of PBS with 2% FBS. Next, the cells were diluted with an equal volume of 2× stock of the test bispecific binding molecule. The cells and antibody were co-incubated on ice for 20 min. The cells were then washed 3 times with 300 μL of FACS buffer and were resuspended in 100 μL of goat anti-human Fc-PE conjugate antibody (Invitrogen cat. #12499882) at 1:500 dilution and incubated on ice with reduced light for 20 min. The cells were then washed 3 times with 300 μL of FACS buffer and fixed with 2% paraformaldehyde for 10 min at 25° C. The cells were washed 2 times with 300 μL of FACS buffer and analyzed on a Miltenyi MACSQuant Analyzer.

Sequence of human ROR1 on cells (Q01973 30-937 limits assumed): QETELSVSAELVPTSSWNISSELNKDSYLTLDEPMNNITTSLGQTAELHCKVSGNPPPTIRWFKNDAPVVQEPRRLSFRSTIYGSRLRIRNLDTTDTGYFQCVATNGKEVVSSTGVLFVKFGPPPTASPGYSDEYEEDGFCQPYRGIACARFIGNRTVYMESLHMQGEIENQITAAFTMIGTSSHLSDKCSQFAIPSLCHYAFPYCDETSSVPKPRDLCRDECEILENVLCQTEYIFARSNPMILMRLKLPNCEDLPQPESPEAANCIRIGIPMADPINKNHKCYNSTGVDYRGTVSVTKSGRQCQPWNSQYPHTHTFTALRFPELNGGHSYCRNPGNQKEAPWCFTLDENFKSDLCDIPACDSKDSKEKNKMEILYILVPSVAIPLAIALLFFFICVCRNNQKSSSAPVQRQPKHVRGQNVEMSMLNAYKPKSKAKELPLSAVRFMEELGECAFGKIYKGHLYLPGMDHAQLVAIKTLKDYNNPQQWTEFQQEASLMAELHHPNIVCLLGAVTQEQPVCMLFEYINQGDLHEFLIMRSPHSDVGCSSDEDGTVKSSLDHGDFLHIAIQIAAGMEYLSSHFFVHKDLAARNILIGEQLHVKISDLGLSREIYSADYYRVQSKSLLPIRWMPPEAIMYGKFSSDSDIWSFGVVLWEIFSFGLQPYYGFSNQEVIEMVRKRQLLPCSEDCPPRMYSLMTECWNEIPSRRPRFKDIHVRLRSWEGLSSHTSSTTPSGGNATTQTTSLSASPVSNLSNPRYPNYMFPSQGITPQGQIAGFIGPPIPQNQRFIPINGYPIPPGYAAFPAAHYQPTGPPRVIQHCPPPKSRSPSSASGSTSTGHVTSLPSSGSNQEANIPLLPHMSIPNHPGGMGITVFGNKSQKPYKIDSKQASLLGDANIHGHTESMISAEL
T1 sequence (Q01973 30-406 limits assumed): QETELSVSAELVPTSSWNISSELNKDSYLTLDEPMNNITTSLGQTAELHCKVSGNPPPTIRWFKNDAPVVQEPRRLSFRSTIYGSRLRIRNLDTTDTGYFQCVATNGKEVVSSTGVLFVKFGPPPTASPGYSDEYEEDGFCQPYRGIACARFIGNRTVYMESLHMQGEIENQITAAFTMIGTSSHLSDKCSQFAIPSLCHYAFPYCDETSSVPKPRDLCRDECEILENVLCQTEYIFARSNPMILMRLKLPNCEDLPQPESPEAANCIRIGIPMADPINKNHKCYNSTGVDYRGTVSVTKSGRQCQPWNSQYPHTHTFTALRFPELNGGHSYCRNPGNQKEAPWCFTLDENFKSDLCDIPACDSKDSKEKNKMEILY
T2 sequence (P09693 23-182 limits assumed, chain 1 of 3): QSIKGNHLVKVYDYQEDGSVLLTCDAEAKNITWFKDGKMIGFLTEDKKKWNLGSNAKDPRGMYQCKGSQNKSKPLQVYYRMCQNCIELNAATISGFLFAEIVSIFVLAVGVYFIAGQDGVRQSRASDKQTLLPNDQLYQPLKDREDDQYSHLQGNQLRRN
T2 sequence (P04234 22-171 limits assumed, chain 2 of 3): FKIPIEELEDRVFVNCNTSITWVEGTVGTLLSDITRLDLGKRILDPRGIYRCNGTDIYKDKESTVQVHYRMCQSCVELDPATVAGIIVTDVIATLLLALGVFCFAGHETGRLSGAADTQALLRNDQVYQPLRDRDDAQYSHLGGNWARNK
T2 sequence (P07766 23-207 limits assumed, chain 3 of 3): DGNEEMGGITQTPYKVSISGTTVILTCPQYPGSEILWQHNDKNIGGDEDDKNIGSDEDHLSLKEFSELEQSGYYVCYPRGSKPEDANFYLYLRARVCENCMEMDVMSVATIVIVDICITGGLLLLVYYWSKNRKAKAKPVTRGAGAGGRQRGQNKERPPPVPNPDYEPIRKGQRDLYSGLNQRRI

B1: Bispecific construct 18 (bispecific antibody, human IgG1, kappa)
heavy: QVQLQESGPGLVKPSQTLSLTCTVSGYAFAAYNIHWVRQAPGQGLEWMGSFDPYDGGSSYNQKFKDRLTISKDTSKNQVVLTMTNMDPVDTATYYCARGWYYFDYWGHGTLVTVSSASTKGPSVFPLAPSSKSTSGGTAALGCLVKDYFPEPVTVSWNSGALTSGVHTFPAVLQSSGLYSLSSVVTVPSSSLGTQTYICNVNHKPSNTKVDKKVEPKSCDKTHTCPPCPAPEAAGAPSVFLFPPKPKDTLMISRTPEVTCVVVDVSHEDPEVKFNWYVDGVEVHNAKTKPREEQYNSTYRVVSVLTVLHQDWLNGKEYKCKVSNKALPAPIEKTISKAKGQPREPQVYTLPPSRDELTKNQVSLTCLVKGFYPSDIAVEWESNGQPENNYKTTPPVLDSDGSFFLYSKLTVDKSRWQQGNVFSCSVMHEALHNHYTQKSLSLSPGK
light: DIVMTQTPLSLPVTPGEPASISCRASKSISKYLAWYQQKPGQAPRLLIYSGSTLQSGIPPRFSGSGYGTDFTLTINNIESEDAAYYFCQQHDESPYTFGEGTKVEIKRTVAAPSVFIFPPSDEQLKSGTASVVCLLNNFYPREAKVQWKVDNALQSGNSQESVTEQDSKDSTYSLSSTLTLSKADYEKHKVYACEVTHQGLSSPVTKSFNRGECGGGGSGGGGSEVQLVESGGGLVQPGGSLRLSCAASGFTFNTYAMNWVRQAPGKGLEWVARIRSKYNNYATYYADSVKGRFTISRDDSKNTLYLQMNSLRAEDTAVYYCVRHGNFGNSYVSYFAYWGQGTTVTVSSGGGGSGGGGSGGGGSGGGGSEIVVTQSPATLSVSPGERATLSCRSSTGAVTAANYANWVQEKPGQAFRGLIGGANKRAPGVPARFSGSLSGDEATLTISSLQSEDFAVYYCALFYSNLWVFGQGTKLEIK
notes: anti-CD3 scFv Ab10; valency 2/2
With B1, in assay [1], the “EC50, LDH release, ROR1-transfected MEC” value is 3.5 ng/mL and 17 pM; the “Max. LDH Release, ROR1-transfected MEC” value stood at 34%. For the same molecule, the Kd in assay [2] came to 0.048 nM. In assay [3], the binding result is on record as “binds”.

B2: Bispecific construct 16 (bispecific antibody, human IgG1, kappa)
heavy 1: not shown
heavy 2: EVQLVESGGGLVQPGGSLRLSCAASGFTFNTYAMNWVRQAPGKGLEWVARIRSKYNNYATYYADSVKGRFTISRDDSKNTLYLQMNSLRAEDTAVYYCVRHGNFGNSYVSYFAYWGQGTTVTVSSGGGGSGGGGSGGGGSGGGGSEIVVTQSPATLSVSPGERATLSCRSSTGAVTAANYANWVQEKPGQAFRGLIGGANKRAPGVPARFSGSLSGDEATLTISSLQSEDFAVYYCALFYSNLWVFGQGTKLEIKEPKSSDKTHTCPPCPAPEAAGAPSVFLFPPKPKDTLMISRTPEVTCVVVDVSHEDPEVKFNWYVDGVEVHNAKTKPREEQYNSTYRVVSVLTVLHQDWLNGKEYKCKVSNKALPAPIEKTISKAKGQPREPQVYTLPPSRDELTKNQVSLSCAVKGFYPSDIAVEWESNGQPENNYKTTPPVLDSDGSFFLVSKLTVDKSRWQQGNVFSCSVMHEALHNHYTQKSLSLSPGK
light: DIVMTQTPLSLPVTPGEPASISCRASKSISKYLAWYQQKPGQAPRLLIYSGSTLQSGIPPRFSGSGYGTDFTLTINNIESEDAAYYFCQQHDESPYTFGEGTKVEIKRTVAAPSVFIFPPSDEQLKSGTASVVCLLNNFYPREAKVQWKVDNALQSGNSQESVTEQDSKDSTYSLSSTLTLSKADYEKHKVYACEVTHQGLSSPVTKSFNRGEC
notes: anti-CD3 scFv Ab10; valency 1/1
On to B2, for which the Kd in assay [2] is 0.057 nM. For the same molecule, the binding result in assay [3] is given as “binds”.

B3: Bispecific construct 19 (bispecific antibody, human IgG1, kappa)
heavy 1: not shown
heavy 2: EVQLVESGGGLVQPGGSLRLSCAASGFTFNTYAMNWVRQAPGKGLEWVARIRSKYNNYATYYADSVKGRFTISRDDSKNTLYLQMNSLRAEDTAVYYCVRHGNFGNSYVSYFAYWGQGTTVTVSSGGGGSGGGGSGGGGSGGGGSEIVVTQSPATLSVSPGERATLSCRSSTGAVTAANYANWVQEKPGQAFRGLIGGANKRAPGVPARFSGSLSGDEATLTISSLQSEDFAVYYCALFYSNLWVFGQGTKLEIKGGGGSGGGGSQVQLQESGPGLVKPSQTLSLTCTVSGYAFTAYNIHWVRQAPGQGLEWMGSFDPYDGGSSYNQKFKDRLTISKDTSKNQVVLTMTNMDPVDTATYYCARGWYYFDYWGHGTLVTVSSASTKGPSVFPLAPSSKSTSGGTAALGCLVKDYFPEPVTVSWNSGALTSGVHTFPAVLQSSGLYSLSSVVTVPSSSLGTQTYICNVNHKPSNTKVDKKVEPKSCDKTHTCPPCPAPEAAGAPSVFLFPPKPKDTLMISRTPEVTCVVVDVSHEDPEVKFNWYVDGVEVHNAKTKPREEQYNSTYRVVSVLTVLHQDWLNGKEYKCKVSNKALPAPIEKTISKAKGQPREPQVYTLPPSRDELTKNQVSLSCAVKGFYPSDIAVEWESNGQPENNYKTTPPVLDSDGSFFLVSKLTVDKSRWQQGNVFSCSVMHEALHNHYTQKSLSLSPGK
light: DIVMTQTPLSLPVTPGEPASISCRASKSISKYLAWYQQKPGQAPRLLIYSGSTLQSGIPPRFSGSGYGTDFTLTINNIESEDAAYYFCQQHDESPYTFGEGTKVEIKRTVAAPSVFIFPPSDEQLKSGTASVVCLLNNFYPREAKVQWKVDNALQSGNSQESVTEQDSKDSTYSLSSTLTLSKADYEKHKVYACEVTHQGLSSPVTKSFNRGEC
notes: CD3 valency 1, ROR1 valency 2
On to B3, for which the Kd in assay [2] came to 0.2 nM.

B4: Bispecific construct 17 (bispecific antibody, human IgG1, kappa)
heavy 1: not shown
heavy 2: EVQLVESGGGLVQPGGSLRLSCAASGFTFNTYAMNWVRQAPGKCLEWVARIRSKYNNYATYYADSVKGRFTISRDDSKNTLYLQMNSLRAEDTAVYYCVRHGNFGNSYVSYFAYWGQGTTVTVSSGGGGSGGGGSGGGGSGGGGSEIVVTQSPATLSVSPGERATLSCRSSTGAVTAANYANWVQEKPGQAFRGLIGGANKRAPGVPARFSGSLSGDEATLTISSLQSEDFAVYYCALFYSNLWVFGCGTKLEIKEPKSSDKTHTCPPCPAPEAAGAPSVFLFPPKPKDTLMISRTPEVTCVVVDVSHEDPEVKFNWYVDGVEVHNAKTKPREEQYNSTYRVVSVLTVLHQDWLNGKEYKCKVSNKALPAPIEKTISKAKGQPREPQVYTLPPSRDELTKNQVSLSCAVKGFYPSDIAVEWESNGQPENNYKTTPPVLDSDGSFFLVSKLTVDKSRWQQGNVFSCSVMHEALHNHYTQKSLSLSPGK
light: DIVMTQTPLSLPVTPGEPASISCRASKSISKYLAWYQQKPGQAPRLLIYSGSTLQSGIPPRFSGSGYGTDFTLTINNIESEDAAYYFCQQHDESPYTFGEGTKVEIKRTVAAPSVFIFPPSDEQLKSGTASVVCLLNNFYPREAKVQWKVDNALQSGNSQESVTEQDSKDSTYSLSSTLTLSKADYEKHKVYACEVTHQGLSSPVTKSFNRGEC
notes: disulfide-stabilized anti-CD3 scFv Ab10; valency 1/1
As to B4, the dissociation constant (Kd) in assay [2] came to 0.068 nM. Also, the binding result in assay [3] was “binds”.

B5: control 1 (bispecific antibody)
polypeptide, role not told 1: QLVLTQSPSASASLGSSVKLTCTLSSGHKTDTIDWYQQQPGKAPRYLMKLEGSGSYNKGSGVPDRFSGSSSGADWYLTISSLQSEDEADYYCGTDYPGNYLFGGGTQLTVLGGGGSGGGGEVQLVESGGGLVQPGGSLRLSCAASGFTFSTYAMNWVRQAPGKGLEWVGRIRSKYNNYATYYADSVKGRFTISRDDSKNSLYLQMNSLKTEDTAVYYCVRHGNFGNSYVSWFAYWGQGTLVTVSSASTKGEVAACEKEVAALEKEVAALEKEVAALEKGGGDKTHTCPPCPAPEAAGGPSVFLFPPKPKDTLMISRTPEVTCVVVDVSHEDPEVKFNWYVDGVEVHNAKTKPREEQYNSTYRVVSVLTVLHQDWLNGKEYKCKVSNKALPAPIEKTISKAKGQPREPQVYTLPPSREEMTKNQVSLWCLVKGFYPSDIAVEWESNGQPENNYKTTPPVLDSDGSFFLYSKLTVDKSRWQQGNVFSCSVMHEALHNHYTQKSLSLSPGK
polypeptide, role not told 2: QAVVTQEPSLTVSPGGTVTLTCRSSTGAVTTSNYANWVQQKPGQAPRGLIGGTNKRAPWTPARFSGSLLGGKAALTITGAQAEDEADYYCALWYSNLWVFGGGTKLTVLGGGGSGGGGQEQLVESGGGLVQPGGSLRLSCAASGFTFSDYYMSWIRQAPGKGLEWVATIYPSSGKTYYADSAKGRLTISSDNAKDSLYLQMNSLRAEDTAVYYCTRDSYADDAALFDIWGQGTTVTVSSASTKGKVAACKEKVAALKEKVAALKEKVAALKE
polypeptide, role not told 3: not shown
For B5, the binding result in assay [3] is recorded as “binds”.

B6: Bispecific construct 20 (bispecific antibody, human IgG1, kappa)
heavy: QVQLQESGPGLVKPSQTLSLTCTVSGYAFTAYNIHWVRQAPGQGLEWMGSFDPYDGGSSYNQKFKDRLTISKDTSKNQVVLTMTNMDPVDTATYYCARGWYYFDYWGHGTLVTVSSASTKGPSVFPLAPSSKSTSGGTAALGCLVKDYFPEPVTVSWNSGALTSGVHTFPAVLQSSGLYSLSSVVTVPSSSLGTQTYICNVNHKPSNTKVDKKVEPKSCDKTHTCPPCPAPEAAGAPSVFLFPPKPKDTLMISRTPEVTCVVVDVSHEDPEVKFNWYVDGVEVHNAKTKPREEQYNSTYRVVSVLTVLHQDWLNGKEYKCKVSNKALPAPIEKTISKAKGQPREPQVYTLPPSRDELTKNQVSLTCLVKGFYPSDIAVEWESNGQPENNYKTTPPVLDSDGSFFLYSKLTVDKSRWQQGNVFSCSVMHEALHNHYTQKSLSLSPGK
light: EVQLVESGGGLVQPGGSLRLSCAASGFTFNTYAMNWVRQAPGKGLEWVARIRSKYNNYATYYADSVKGRFTISRDDSKNTLYLQMNSLRAEDTAVYYCVRHGNFGNSYVSYFAYWGQGTTVTVSSGGGGSGGGGSGGGGSGGGGSEIVVTQSPATLSVSPGERATLSCRSSTGAVTAANYANWVQEKPGQAFRGLIGGANKRAPGVPARFSGSLSGDEATLTISSLQSEDFAVYYCALFYSNLWVFGQGTKLEIKGGGGSGGGGSDIVMTQTPLSLPVTPGEPASISCRASKSISKYLAWYQQKPGQAPRLLIYSGSTLQSGIPPRFSGSGYGTDFTLTINNIESEDAAYYFCQQHDESPYTFGEGTKVEIKRTVAAPSVFIFPPSDEQLKSGTASVVCLLNNFYPREAKVQWKVDNALQSGNSQESVTEQDSKDSTYSLSSTLTLSKADYEKHKVYACEVTHQGLSSPVTKSFNRGEC
notes: valency 2/2
For B6, in assay [1], the “EC50, LDH release, ROR1-transfected MEC” value was 1.8 ng/mL and 9 pM; the “Max. LDH Release, ROR1-transfected MEC” value came out at 37%. The dissociation constant Kd in assay [2] amounted to 0.366 nM.
